In PMC5505701, “Somatostatin binds to the human amyloid β peptide and favors the formation of distinct oligomers” (eLife, 2017):

B1: ATP synthase subunit gamma, mitochondrial: human brain protein (protein, UniProt P36542 26-298, looked up)
ATP synthase F(1) complex …: ATLKDITRRLKSIKNIQKITKSMKMVAAAKYARAERELKPARIYGLGSLALYEKADIKGPEDKKKHLLIGVSSDRGLCGAIHSSIAKQMKSEVATLTAAGKEVMLVGIGDKIRGILYRTHSDQFLVAFKEVGRKPPTFGDASVIALELLNSGYEFDEGSIIFNKFRSVISYKTEEKPIFSLNTVASADSMSIYDDIDADVLQNYQEYNLANIIYYSLKESTTSEQSARMTAMDNASKNASEMIDKLTLTFNRTRQAVITKELIEIISGAAALD
B2: NAD-dependent deacetylase sirtuin-2: human brain protein (protein, UniProt Q8IXJ6 2-389, looked up)
NAD-dependent protein …: AEPDPSHPLETQAGKVQEAQDSDSDSEGGAAGGEADMDFLRNLFSQTLSLGSQKERLLDELTLEGVARYMQSERCRRVICLVGAGISTSAGIPDFRSPSTGLYDNLEKYHLPYPEAIFEISYFKKHPEPFFALAKELYPGQFKPTICHYFMRLLKDKGLLLRCYTQNIDTLERIAGLEQEDLVEAHGTFYTSHCVSASCRHEYPLSWMKEKIFSEVTPKCEDCQSLVKPDIVFFGESLPARFFSCMQSDFLKVDLLLVMGTSLQVQPFASLISKAPLSTPRLLINKEKAGQSDPFLGMIMGLGGGMDFDSKKAYRDVAWLGECDQGCLALAELLGWKKELEDLVRREHASIDAQSGAGVPNPSTSASPKKSPPPAKDEARTTEREKPQ
B3: Dihydropyrimidinase-related protein 5: human brain protein (protein, UniProt Q9BPU6 1-564, looked up)
Dihydropyrimidinase-related …: MLANSASVRILIKGGKVVNDDCTHEADVYIENGIIQQVGRELMIPGGAKVIDATGKLVIPGGIDTSTHFHQTFMNATCVDDFYHGTKAALVGGTTMIIGHVLPDKETSLVDAYEKCRGLADPKVCCDYALHVGITWWAPKVKAEMETLVREKGVNSFQMFMTYKDLYMLRDSELYQVLHACKDIGAIARVHAENGELVAEGAKEALDLGITGPEGIEISRPEELEAEATHRVITIANRTHCPIYLVNVSSISAGDVIAAAKMQGKVVLAETTTAHATLTGLHYYHQDWSHAAAYVTVPPLRLDTNTSTYLMSLLANDTLNIVASDHRPFTTKQKAMGKEDFTKIPHGVSGVQDRMSVIWERGVVGGKMDENRFVAVTSSNAAKLLNLYPRKGRIIPGADADVVVWDPEATKTISASTQVQGGDFNLYENMRCHGVPLVTISRGRVVYENGVFMCAEGTGKFCPLRSFPDTVYKKLVQREKTLKVRGVDRTPYLGDVAVVVHPGKKEMGTPLADTPTRPVTRHGGMRDLHESSFSLSGSQIDDHVPKRASARILAPPGGRSSGIW
B4: Ubiquitin carboxyl-terminal hydrolase L1: human brain protein (protein, UniProt P09936 1-220, looked up)
Ubiquitin carboxyl-terminal …: MQLKPMEINPEMLNKVLSRLGVAGQWRFVDVLGLEEESLGSVPAPACALLLLFPLTAQHENFRKKQIEELKGQEVSPKVYFMKQTIGNSCGTIGLIHAVANNQDKLGFEDGSVLKQFLSETEKMSPEDRAKCFEKNEAIQAAHDAVAQEGQCRVDDKVNFHFILFNNVDGHLYELDGRMPFPVNHGASSEDTLLKDAAKVCREFTEREQGEVRFSAVALC
B5: Cytosolic acyl CoA thioester hydrolase: human brain protein (protein, UniProt O00154 1-380, looked up)
Cytosolic acyl coenzyme A …: MKLLARALRLCEFGRQASSRRLVAGQGCVGPRRGCCAPVQVVGPRADLPPCGACITGRIMRPDDANVAGNVHGGTILKMIEEAGAIISTRHCNSQNGERCVAALARVERTDFLSPMCIGEVAHVSAEITYTSKHSVEVQVNVMSENILTGAKKLTNKATLWYVPLSLKNVDKVLEVPPVVYSRQEQEEEGRKRYEAQKLERMETKWRNGDIVQPVLNPEPNTVSYSQSSLIHLVGPSDCTLHGFVHGGVTMKLMDEVAGIVAARHCKTNIVTASVDAINFHDKIRKGCVITISGRMTFTSNKSMEIEVLVDADPVVDSSQKRYRAASAFFTYVSLSQEGRSLPVPQLVPETEDEKKRFEEGKGRYLQMKAKRQGHAEPQP
B6: Tryptophanyl-tRNA synthetase, cytoplasmic: human brain protein (protein, UniProt P23381 2-471, looked up)
Tryptophan--tRNA ligase, …: PNSEPASLLELFNSIATQGELVRSLKAGNASKDEIDSAVKMLVSLKMSYKAAAGEDYKADCPPGNPAPTSNHGPDATEAEEDFVDPWTVQTSSAKGIDYDKLIVRFGSSKIDKELINRIERATGQRPHHFLRRGIFFSHRDMNQVLDAYENKKPFYLYTGRGPSSEAMHVGHLIPFIFTKWLQDVFNVPLVIQMTDDEKYLWKDLTLDQAYSYAVENAKDIIACGFDINKTFIFSDLDYMGMSSGFYKNVVKIQKHVTFNQVKGIFGFTDSDCIGKISFPAIQAAPSFSNSFPQIFRDRTDIQCLIPCAIDQDPYFRMTRDVAPRIGYPKPALLHSTFFPALQGAQTKMSASDPNSSIFLTDTAKQIKTKVNKHAFSGGRDTIEEHRQFGGNCDVDVSFMYLTFFLEDDDKLEQIRKDYTSGAMLTGELKKALIEVLQPLIAEHQARRKEVTDEIVKEFMTPRKLSFDFQ
B7: Medium-chain specific acyl-CoA dehydrogenase: human brain protein (protein, UniProt P11310 26-421, looked up)
Medium-chain specific …: KANRQREPGLGFSFEFTEQQKEFQATARKFAREEIIPVAAEYDKTGEYPVPLIRRAWELGLMNTHIPENCGGLGLGTFDACLISEELAYGCTGVQTAIEGNSLGQMPIIIAGNDQQKKKYLGRMTEEPLMCAYCVTEPGAGSDVAGIKTKAEKKGDEYIINGQKMWITNGGKANWYFLLARSDPDPKAPANKAFTGFIVEADTPGIQIGRKELNMGQRCSDTRGIVFEDVKVPKENVLIGDGAGFKVAMGAFDKTRPVVAAGAVGLAQRALDEATKYALERKTFGKLLVEHQAISFMLAEMAMKVELARMSYQRAAWEVDSGRRNTYYASIAKAFAGDIANQLATDAVQILGGNGFNTEYPVEKLMRDAKIYQIYEGTSQIQRLIVAREHIDKYKN
B8: Centractin, beta: human brain protein (protein, UniProt P42025 1-376, looked up)
Beta-centractin: MESYDIIANQPVVIDNGSGVIKAGFAGDQIPKYCFPNYVGRPKHMRVMAGALEGDLFIGPKAEEHRGLLTIRYPMEHGVVRDWNDMERIWQYVYSKDQLQTFSEEHPVLLTEAPLNPSKNREKAAEVFFETFNVPALFISMQAVLSLYATGRTTGVVLDSGDGVTHAVPIYEGFAMPHSIMRVDIAGRDVSRYLRLLLRKEGVDFHTSAEFEVVRTIKERACYLSINPQKDEALETEKVQYTLPDGSTLDVGPARFRAPELLFQPDLVGDESEGLHEVVAFAIHKSDMDLRRTLFANIVLSGGSTLFKGFGDRLLSEVKKLAPKDIKIKISAPQERLYSTWIGGSILASLDTFKKMWVSKKEYEEDGSRAIHRKTF
B9: Mu-crystallin homolog: human brain protein (protein, UniProt Q14894 1-314, looked up)
Ketimine reductase …: MSRVPAFLSAAEVEEHLRSSSLLIPPLETALANFSSGPEGGVMQPVRTVVPVTKHRGYLGVMPAYSAAEDALTTKLVTFYEDRGITSVVPSHQATVLLFEPSNGTLLAVMDGNVITAKRTAAVSAIATKFLKPPSSEVLCILGAGVQAYSHYEIFTEQFSFKEVRIWNRTKENAEKFADTVQGEVRVCSSVQEAVAGADVIITVTLATEPILFGEWVKPGAHINAVGASRPDWRELDDELMKEAVLYVDSQEAALKESGDVLLSGAEIFAELGEVIKGVKPAHCEKTTVFKSLGMAVEDTVAAKLIYDSWSSGK

system: oligomeric versus monomeric Aβ1-42 (Aβ1-42-biotin bait); experiment: Affinity capture interactome Experiment III (oAβ1-42-biotin vs mAβ1-42-biotin); conditions: oligomeric versus monomeric bait; human frontal lobe digitonin extract; TMT; pH 8.0, 4°C overnight

Row | Molecule | Experiment III oAβ1-42-B/mAβ1-42-B Ratio
1 | B1 | 3.29
2 | B2 | 2.58
3 | B3 | 3.79
4 | B4 | 1.39
5 | B5 | 4.03
6 | B6 | 3.97
7 | B7 | 1.82
8 | B8 | 3.25
9 | B9 | 2.41

system: oligomeric Aβ1-42 (oAβ1-42-biotin bait); experiment: Affinity capture interactome Experiment II (C-terminally tethered oAβ1-42-biotin vs biotin); conditions: enrichment relative to biotin-only negative control; human frontal lobe digitonin extract; TMT; pH 8.0, 4°C overnight

Row | Molecule | Experiment II oAβ1-42-B/B Ratio
10 | B4 | 1.87
